This data set in a line: amyloid nucleation score (Sup35N fusion, yeast selection) (log enrichment); library NNK2; higher = more nucleation; inactive = no reads after selection. The method, boiled down:
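Output and input plasmid inserts were sequenced by Illumina after psi-negative yeast carrying Sup35N fused to peptides of 20 random codons had been induced 24 hours with 100 μM copper sulfate and grown 7 days at 30°C on medium lacking adenine and uracil. The nucleation score is the DiMSum log enrichment of output over input reads, centred on the mode score of non-aggregating sequences. Sequences with under 100 input reads were excluded.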

± gives the uncertainty stated by the source.

As to GFIYLILTL, the amyloid nucleation score is 1.28 ± 0.13.
Under RLYIIIRFGIVHVT stands -0.078 ± 0.21; under WSRTVYGIFCKIG, 0.208 ± 0.65; under YIGLVSS, -0.052 ± 0.65.
The substance LFGFLTTRVPWIFSWMVPTA had an amyloid nucleation score of -0.003 ± 0.44.
The same measure for CRHMSDHWKSSR: -0.562 ± 0.54.
The same measure for SLVSKIRLRGAWINSGVKTG: 0.923 ± 0.17; for LDDSYPCFASIITI: 1.01 ± 0.41.
The substance GALRPAFLSCKMVWR yielded an amyloid nucleation score of 0.528 ± 0.49.
For CHYRMVVKRYTFEHYAFYVG, the amyloid nucleation score is -0.782 ± 0.61.
INQFIFGTKRMSKNYVSMVR: the amyloid nucleation score entry was “inactive”.
Under QLVNMRTCLLSRDLRLLELL stands -0.318 ± 0.45; under RFWMNNSLNLCQLILTR, 0.333 ± 0.61.
In the case of MKVGLLD, the amyloid nucleation score is -0.49 ± 0.76.
The same measure for PHVRTFRRFRWMY: -0.251 ± 0.39.
The same measure for SAVWRHVNDLLLSR: 1.11 ± 0.4; for NSTKTRLSSDTTLDFLEATR: -0.299 ± 0.27.
RAVLFAVVKQM came in with an amyloid nucleation score of 0.874 ± 0.42.
The same measure for IYLGVCYFSALGRDFMSKWW: 1.77 ± 0.15; for KDWGFRNTCG: -0.184 ± 1.1; for VSFKDTTGECGDLSYRKNAR: 0.646 ± 0.38.
Under FDRRVDV stands -0.076 ± 0.29.
The same measure for PCRVYHLCNYKLAWRKGGWL: 0.927 ± 0.2; for CNVDYLSDVYYHVPMQDQSL: 0.368 ± 0.48.
Turning to YLPPNKNWFFVWVDFSSWVF, the amyloid nucleation score was -0.627 ± 0.61.
Substance HESKYNVQVFN showed an amyloid nucleation score of -0.276 ± 0.76.
Regarding AHNDVNGVFLMPVRSLDFKH, the amyloid nucleation score was -1.17 ± 0.64.
With EFQIMFVFHWT, the amyloid nucleation score entry is “inactive”.
Under DGKMNPVSAY stands “inactive”.
The same measure for VRCNFISVWSCDVESIVVES: 5.096 ± 0.046; for DVVKNLYSSGLGLSTCMLYI: -0.95 ± 0.55.
The same measure for KVLCWLRVRYLKGLGQGSAC: 0.358 ± 0.31; for LQGRYNSTYYMDVAGLVVSE: -1.23 ± 0.76.
Take NEWAN: the amyloid nucleation score is -1.31 ± 0.62.
Under LRSRVSSSLSYKLLFRTNVL stands -0.175 ± 0.49; under RLISYNSCLSWSSWG, 3.48 ± 0.087; under FGFNCMGWYRDCAVTSTWGA, 0.809 ± 0.31.
Under IFDCCY stands -1.82 ± 1.1; under YVSLNQRVNFA, -1.47 ± 0.76.
The same measure for GSVFLRGTYWVLKDVCGWKE: 0.391 ± 0.56; for SQIWFTVTYGQYCYYIVSL: -0.33 ± 0.33.
The substance GNVGL showed an amyloid nucleation score of 1.86 ± 0.078.
The same measure for STCFLTFVY: “inactive”; for LRSLIYRCVLQWNTAKFLRS: -0.716 ± 1.1.
Turning to HERLKLAGSQSWVGKLVRQG, the amyloid nucleation score amounted to 0.917 ± 0.29.
With CKYFLLVFIVVNYFGLGPMP, the amyloid nucleation score entry is “inactive”.
For the substance EMSRMASNISRMKVSRASKH, the amyloid nucleation score amounted to 1.15 ± 0.38.
Under FFCRG stands 3.26 ± 0.084; under VFLLTLRCCWEFVLCADGP, 1.29 ± 0.36.
Substance LCLVQLSDSCNQ displayed an amyloid nucleation score of 7.917 ± 0.055.
The same measure for FNVEVRV: -0.379 ± 0.45.
The same measure for LNTLDNN: -0.047 ± 0.16; for TVRLVWSWMHTPLFGPVTCA: 0.073 ± 0.56.
Under THWMKRRVVA stands 1.33 ± 0.17.
WSTSFYLLIFTPRVCCMDFF returned an amyloid nucleation score of 5.619 ± 0.034.
Under VIYVPLGKNLKIFSKHSFFG stands -0.906 ± 0.76; under SLGCSAFR, -1.62 ± 0.62; under CCWLAMRVRFTMASKLPNFE, 3.34 ± 0.083.
The same measure for YAVENTLYHVRVVTLQSISW: 0.153 ± 0.79.

(Values after the supplement of paper PMC12042874.)
